Experimental data reported in the supplement of paper PMC6757056.
± gives the standard deviation of the averaged measurements.

B1: library; a variant is named by its letters at N, in order (parent)
chain: GCUGUCACCGGUGUAUUACCCUAGUGGUCGACCGGUCUGAUGAGUCUNNNNNNAGACGAAACAGC

Columns and labels:
[1] = variants of: B1; assay: FACS-Seq fitted mean relative fluorescence mCherry/BFP without ligand (log10 relative fluorescence); ligand: hypoxanthine (xanthine aptamer); higher = higher reporter protein expression; conditions: HEK293T, ligand present: no
In short: (§1)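 Genomic DNA from 6 mCherry/BFP sort bins was PCR-amplified, barcoded and sequenced on MiSeq. The sorted cells were enriched HEK293T libraries, lentivirally transduced with a ribozyme-switch mCherry reporter and an EF1α-BFP marker, incubated with or without ligand for 48 h. Fluorescence derives from a normal fit to the bin counts. The fit was on log10(mCherry/BFP), and means were scaled to five spiked-in control ribozymes.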

[2] = variants of: B1; assay: normalized RNA/DNA level with ligand (relative to sTRSVctl = 100) (log10 (% of sTRSVctl)); ligand: hypoxanthine (xanthine aptamer); higher = less ribozyme self-cleavage, higher mRNA level; conditions: ligand concentration (+) RNA-Seq: 5 mM, HEK293T, reporter: mCherry (pCS4076), ligand present: yes
In short: (§2)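 Total RNA, extracted with EDTA 72 h after HEK293T cells were transfected with 4 µg per 6-well well of reporter-linked ribozyme switch library plasmids, was reverse-transcribed, amplified, barcoded and sequenced. Ligand, if used, was added 1 h before transfection. RNA level was derived from RNA reads divided by DNA reads and normalized to a spiked-in non-cleaving sequence or to the top sequences. This was multiplied by 100 and log10-transformed, with the top set of 25 sequences and a ≥100 DNA read minimum.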

[3] = variants of: B1; assay: normalized RNA/DNA level without ligand (relative to sTRSVctl = 100) (log10 (% of sTRSVctl)); ligand: hypoxanthine (xanthine aptamer); higher = less ribozyme self-cleavage, higher mRNA level; conditions: HEK293T, reporter: mCherry (pCS4076), ligand present: no
In short: as §2

[4] = variants of: B1; assay: FACS-Seq fitted mean relative fluorescence mCherry/BFP with ligand (log10 relative fluorescence); ligand: hypoxanthine (xanthine aptamer); ligand concentration (+) FACS-Seq: 5 mM; higher = higher reporter protein expression; conditions: HEK293T, ligand present: yes
In short: as §1

| Variant | FACS-Seq fitted mean (log10) [1] | normalized RNA/DNA level with ligand (log10) [2] | normalized RNA/DNA level without ligand (log10) [3] | FACS-Seq fitted mean (log10) [4] |
| --- | --- | --- | --- | --- |
| GCUGUCACCGGUGUAUUACCCUAGUGGUCGACCGGUCUGAUGAGUCUCGACACAGACGAAACAGC [CGACAC] | -0.0307 ± 0.0086 | 1.938 ± 0.0063 | 1.75 ± 0.039 | 0.154 ± 0.057 |
| GCUGUCACCGGUGUAUUACCCUAGUGGUCGACCGGUCUGAUGAGUCUUGACGAAGACGAAACAGC [UGACGA] | 0.285 ± 0.037 | 1.94 ± 0.023 | 1.581 ± 0.0051 | 0.593 ± 0.023 |
| GCUGUCACCGGUGUAUUACCCUAGUGGUCGACCGGUCUGAUGAGUCUAGACAAAGACGAAACAGC [AGACAA] | 0.177 ± 0.019 | 1.89 ± 0.049 | 1.74 ± 0.053 | 0.0293 ± 0.022 |
| GCUGUCACCGGUGUAUUACCCUAGUGGUCGACCGGUCUGAUGAGUCUAGACAGAGACGAAACAGC [AGACAG] | 0.418 ± 0.037 | 1.82 ± 0.053 | 1.391 ± 0.011 | 0.565 ± 0.052 |
| GCUGUCACCGGUGUAUUACCCUAGUGGUCGACCGGUCUGAUGAGUCUAGACAUAGACGAAACAGC [AGACAU] | 0.502 ± 0.023 | 1.907 ± 0.0038 | 1.755 ± 0.0087 | 0.538 ± 0.036 |
| GCUGUCACCGGUGUAUUACCCUAGUGGUCGACCGGUCUGAUGAGUCUCGACGGAGACGAAACAGC [CGACGG] | 0.267 ± 0.083 | 1.83 ± 0.035 | 1.413 ± 0.0057 | 0.596 ± 0.078 |
| GCUGUCACCGGUGUAUUACCCUAGUGGUCGACCGGUCUGAUGAGUCUCGACGCAGACGAAACAGC [CGACGC] | -0.246 ± 0.0073 | 1.919 ± 0.0071 | 1.87 ± 0.019 | -0.157 ± 0.067 |
| GCUGUCACCGGUGUAUUACCCUAGUGGUCGACCGGUCUGAUGAGUCUAGACGAAGACGAAACAGC [AGACGA] | 0.525 ± 0.066 | 1.95 ± 0.049 | 1.62 ± 0.025 | 0.546 ± 0.049 |
| GCUGUCACCGGUGUAUUACCCUAGUGGUCGACCGGUCUGAUGAGUCUCGAAUAAGACGAAACAGC [CGAAUA] | 0.459 ± 0.085 | 1.9 ± 0.037 | 1.677 ± 0.0017 | 0.656 ± 0.027 |
| GCUGUCACCGGUGUAUUACCCUAGUGGUCGACCGGUCUGAUGAGUCUAGACCCAGACGAAACAGC [AGACCC] | 0.552 ± 0.035 | 1.94 ± 0.0097 | 1.92 ± 0.02 | 0.516 ± 0.11 |
| GCUGUCACCGGUGUAUUACCCUAGUGGUCGACCGGUCUGAUGAGUCUGGACAAAGACGAAACAGC [GGACAA] | 0.0221 ± 0.17 | 1.89 ± 0.02 | 1.76 ± 0.028 | 0.0902 ± 0.07 |
| GCUGUCACCGGUGUAUUACCCUAGUGGUCGACCGGUCUGAUGAGUCUGGACACAGACGAAACAGC [GGACAC] | 0.562 ± 0.091 | 1.9 ± 0.097 | 1.71 ± 0.022 | 0.59 ± 0.014 |
| GCUGUCACCGGUGUAUUACCCUAGUGGUCGACCGGUCUGAUGAGUCUUGACAGAGACGAAACAGC [UGACAG] | 0.5894 ± 0.0055 | 1.93 ± 0.043 | 1.66 ± 0.064 | 0.556 ± 0.022 |
| GCUGUCACCGGUGUAUUACCCUAGUGGUCGACCGGUCUGAUGAGUCUUGACACAGACGAAACAGC [UGACAC] | 0.161 ± 0.17 | 1.93 ± 0.03 | 1.84 ± 0.064 | 0.132 ± 0.059 |
| GCUGUCACCGGUGUAUUACCCUAGUGGUCGACCGGUCUGAUGAGUCUGGAAUUAGACGAAACAGC [GGAAUU] | 0.904 ± 0.078 | 1.955 ± 0.011 | 1.89 ± 0.045 | 0.815 ± 0.039 |
| GCUGUCACCGGUGUAUUACCCUAGUGGUCGACCGGUCUGAUGAGUCUGGAAUAAGACGAAACAGC [GGAAUA] | 0.68 ± 0.044 | 1.9527 ± 0.00026 | 1.78 ± 0.028 | 0.588 ± 0.045 |
| GCUGUCACCGGUGUAUUACCCUAGUGGUCGACCGGUCUGAUGAGUCUGGAAUGAGACGAAACAGC [GGAAUG] | -0.159 ± 0.068 | 1.842 ± 0.0069 | 1.34 ± 0.03 | -0.507 ± 0.2 |
| GCUGUCACCGGUGUAUUACCCUAGUGGUCGACCGGUCUGAUGAGUCUAGAAUGAGACGAAACAGC [AGAAUG] | -0.0981 ± 0.019 | 1.86 ± 0.034 | 1.42 ± 0.058 | -0.0321 ± 0.076 |
| GCUGUCACCGGUGUAUUACCCUAGUGGUCGACCGGUCUGAUGAGUCUGGACCGAGACGAAACAGC [GGACCG] | 0.219 ± 0.056 | 1.97 ± 0.03 | 1.79 ± 0.0033 | 0.447 ± 0.027 |
| GCUGUCACCGGUGUAUUACCCUAGUGGUCGACCGGUCUGAUGAGUCUGGACGAAGACGAAACAGC [GGACGA] | 0.478 ± 0.053 | 1.904 ± 0.015 | 1.64 ± 0.031 | 0.693 ± 0.025 |
| GCUGUCACCGGUGUAUUACCCUAGUGGUCGACCGGUCUGAUGAGUCUGGACGGAGACGAAACAGC [GGACGG] | 0.346 ± 0.049 | 1.81 ± 0.035 | 1.42 ± 0.016 | 0.584 ± 0.054 |
